Legend:
GFP-14-3-3β = GFP-14-3-3β co-IP with LC-MS/MS, untreated GFP-14-3-3β versus GFP control (14-3-3 interactome); format: binding, human
[1] = system: GFP-14-3-3β and its binding proteins; test: GFP-14-3-3β co-IP with LC-MS/MS label-free quantification, untreated versus PP1c-treated; design: species or system human
[2] = untreated vs GFP, LFQ intensities, replicates 1-3
[3] = PP1 vs untreated, LFQ intensities, replicates 1-3

Molecule | Difference (log2), untreated vs GFP (GFP-14-3-3β; [2]) [log2] | Difference (log2), PP1 vs untreated [1, 3] [log2] | Difference (log2), untreated vs GFP (GFP-14-3-3β; log2 difference, pairwise comparison untreated vs GFP, label-free quantification, 3 replicates each) | Difference (log2), PP1 vs untreated ([1]; log2 difference, pairwise comparison PP1 vs untreated, label-free quantification, 3 replicates each)
HNRNPA2B1 (protein, UniProt P22626 1-353, looked up) Heterogeneous nuclear …: MEKTLETVPLERKKREKEQFRKLFIGGLSFETTEESLRNYYEQWGKLTDCVVMRDPASKRSRGFGFVTFSSMAEVDAAMAARPHSIDGRVVEPKRAVAREESGKPGAHVTVKKLFVGGIKEDTEEHHLRDYFEEYGKIDTIEIITDRQSGKKRGFGFVTFDDHDPVDKIVLQKYHTINGHNAEVRKALSRQEMQEVQSSRSGRGGNFGFGDSRGGGGNFGPGPGSNFRGGSDGYGSGRGFGDGYNGYGGGPGGGNFGGSPGYGGGRGGYGGGGPGYGNQGGGYGGGYDNYGGGNYGSGNYNDFGNYNQQPSNYGPMKSGNFGGSRNMGGPYGGGNYGPGGSGGSGGYGGRSRY | 1.703 | -1.185 | – | –
EWSR1 (protein, UniProt Q01844 1-656, looked up) RNA-binding protein EWS: MASTDYSTYSQAAAQQGYSAYTAQPTQGYAQTTQAYGQQSYGTYGQPTDVSYTQAQTTATYGQTAYATSYGQPPTGYTTPTAPQAYSQPVQGYGTGAYDTTTATVTTTQASYAAQSAYGTQPAYPAYGQQPAATAPTRPQDGNKPTETSQPQSSTGGYNQPSLGYGQSNYSYPQVPGSYPMQPVTAPPSYPPTSYSSTQPTSYDQSSYSQQNTYGQPSSYGQQSSYGQQSSYGQQPPTSYPPQTGSYSQAPSQYSQQSSSYGQQSSFRQDHPSSMGVYGQESGGFSGPGENRSMSGPDNRGRGRGGFDRGGMSRGGRGGGRGGMGSAGERGGFNKPGGPMDEGPDLDLGPPVDPDEDSDNSAIYVQGLNDSVTLDDLADFFKQCGVVKMNKRTGQPMIHIYLDKETGKPKGDATVSYEDPPTAKAAVEWFDGKDFQGSKLKVSLARKKPPMNSMRGGLPPREGRGMPPPLRGGPGGPGGPGGPMGRMGGRGGDRGGFPPRGPRGSRGNPSGGGNVQHRAGDWQCPNPGCGNQNFAWRTECNQCKAPKPEGFLPPPFPPPGGDRGRGGPGGMRGGRGGLMDRGGPGGMFRGGRGGDRGGFRGGRGMDRGGFGGGRRGGPGGPPGPLMEQMGGRRGGRGGPGKMDKGEHRQERRDRPY | 2.021 | -1.1218 | – | –
RALGPS2 (protein, UniProt Q86X27 1-583, looked up) Ras-specific guanine …: MDLMNGQASSVNIAATASEKSSSSESLSDKGSELKKSFDAVVFDVLKVTPEEYAGQITLMDVPVFKAIQPDELSSCGWNKKEKYSSAPNAVAFTRRFNHVSFWVVREILHAQTLKIRAEVLSHYIKTAKKLYELNNLHALMAVVSGLQSAPIFRLTKTWALLSRKDKTTFEKLEYVMSKEDNYKRLRDYISSLKMTPCIPYLGIYLSDLTYIDSAYPSTGSILENEQRSNLMNNILRIISDLQQSCEYDIPMLPHVQKYLNSVQYIEELQKFVEDDNYKLSLKIEPGTSTPRSAASREDLVGPEVGASPQSGRKSVAAEGALLPQTPPSPRNLIPHGHRKCHSLGYNFIHKMNTAEFKSATFPNAGPRHLLDDSVMEPHAPSRGQAESSTLSSGISIGSSDGSELSEETSWPAFERNRLYHSLGPVTRVARNGYRSHMKASSSAESEDLAVHLYPGAVTIQGVLRRKTLLKEGKKPTVASWTKYWAALCGTQLFYYAAKSLKATERKHFKSTSNKNVSVIGWMVMMADDPEHPDLFLLTDSEKGNSYKFQAGNRMNAMLWFKHLSAACQSNKQQVPTNLMTFE | 6.032 | -1.125 | – | –
SF3B1 (protein, UniProt O75533 1-1304, looked up) Splicing factor 3B subunit 1: MAKIAKTHEDIEAQIREIQGKKAALDEAQGVGLDSTGYYDQEIYGGSDSRFAGYVTSIAATELEDDDDDYSSSTSLLGQKKPGYHAPVALLNDIPQSTEQYDPFAEHRPPKIADREDEYKKHRRTMIISPERLDPFADGGKTPDPKMNARTYMDVMREQHLTKEEREIRQQLAEKAKAGELKVVNGAAASQPPSKRKRRWDQTADQTPGATPKKLSSWDQAETPGHTPSLRWDETPGRAKGSETPGATPGSKIWDPTPSHTPAGAATPGRGDTPGHATPGHGGATSSARKNRWDETPKTERDTPGHGSGWAETPRTDRGGDSIGETPTPGASKRKSRWDETPASQMGGSTPVLTPGKTPIGTPAMNMATPTPGHIMSMTPEQLQAWRWEREIDERNRPLSDEELDAMFPEGYKVLPPPAGYVPIRTPARKLTATPTPLGGMTGFHMQTEDRTMKSVNDQPSGNLPFLKPDDIQYFDKLLVDVDESTLSPEEQKERKIMKLLLKIKNGTPPMRKAALRQITDKAREFGAGPLFNQILPLLMSPTLEDQERHLLVKVIDRILYKLDDLVRPYVHKILVVIEPLLIDEDYYARVEGREIISNLAKAAGLATMISTMRPDIDNMDEYVRNTTARAFAVVASALGIPSLLPFLKAVCKSKKSWQARHTGIKIVQQIAILMGCAILPHLRSLVEIIEHGLVDEQQKVRTISALAIAALAEAATPYGIESFDSVLKPLWKGIRQHRGKGLAAFLKAIGYLIPLMDAEYANYYTREVMLILIREFQSPDEEMKKIVLKVVKQCCGTDGVEANYIKTEILPPFFKHFWQHRMALDRRNYRQLVDTTVELANKVGAAEIISRIVDDLKDEAEQYRKMVMETIEKIMGNLGAADIDHKLEEQLIDGILYAFQEQTTEDSVMLNGFGTVVNALGKRVKPYLPQICGTVLWRLNNKSAKVRQQAADLISRTAVVMKTCQEEKLMGHLGVVLYEYLGEEYPEVLGSILGALKAIVNVIGMHKMTPPIKDLLPRLTPILKNRHEKVQENCIDLVGRIADRGAEYVSAREWMRICFELLELLKAHKKAIRRATVNTFGYIAKAIGPHDVLATLLNNLKVQERQNRVCTTVAIAIVAETCSPFTVLPALMNEYRVPELNVQNGVLKSLSFLFEYIGEMGKDYIYAVTPLLEDALMDRDLVHRQTASAVVQHMSLGVYGFGCEDSLNHLLNYVWPNVFETSPHVIQAVMGALEGLRVAIGPCRMLQYCLQGLFHPARKVRDVYWKIYNSIYIGSQDALIAHYPRIYNDDKNTYIRYELDYIL | 2.403 | -1.121 | – | –
HNRNPL (protein, UniProt P14866 1-589, looked up) Heterogeneous nuclear …: MSRRLLPRAEKRRRRLEQRQQPDEQRRRSGAMVKMAAAGGGGGGGRYYGGGSEGGRAPKRLKTDNAGDQHGGGGGGGGGAGAAGGGGGGENYDDPHKTPASPVVHIRGLIDGVVEADLVEALQEFGPISYVVVMPKKRQALVEFEDVLGACNAVNYAADNQIYIAGHPAFVNYSTSQKISRPGDSDDSRSVNSVLLFTILNPIYSITTDVLYTICNPCGPVQRIVIFRKNGVQAMVEFDSVQSAQRAKASLNGADIYSGCCTLKIEYAKPTRLNVFKNDQDTWDYTNPNLSGQGDPGSNPNKRQRQPPLLGDHPAEYGGPHGGYHSHYHDEGYGPPPPHYEGRRMGPPVGGHRRGPSRYGPQYGHPPPPPPPPEYGPHADSPVLMVYGLDQSKMNCDRVFNVFCLYGNVEKVKFMKSKPGAAMVEMADGYAVDRAITHLNNNFMFGQKLNVCVSKQPAIMPGQSYGLEDGSCSYKDFSESRNNRFSTPEQAAKNRIQHPSNVLHFFNAPLEVTEENFFEICDELGVKRPSSVKVFSGKSERSSSGLLEWESKSDALETLGFLNHYQMKNPNGPYPYTLKLCFSTAQHAS | 0.7735 | -1.243 | – | –
SERPINH1 (protein, UniProt P50454 19-418, looked up) Serpin H1: AEVKKPAAAAAPGTAEKLSPKAATLAERSAGLAFSLYQAMAKDQAVENILVSPVVVASSLGLVSLGGKATTASQAKAVLSAEQLRDEEVHAGLGELLRSLSNSTARNVTWKLGSRLYGPSSVSFADDFVRSSKQHYNCEHSKINFRDKRSALQSINEWAAQTTDGKLPEVTKDVERTDGALLVNAMFFKPHWDEKFHHKMVDNRGFMVTRSYTVGVMMMHRTGLYNYYDDEKEKLQIVEMPLAHKLSSLIILMPHHVEPLERLEKLLTKEQLKIWMGKMQKKAVAISLPKGVVEVTHDLQKHLAGLGLTEAIDKNKADLSRMSGKKDLYLASVFHATAFELDTDGNPFDQDIYGREELRSPKLFYADHPFIFLVRDTQSGSLLFIGRLVRPKGDKMRDEL | -0.8949 | -1.158 | – | –
ATP5A1 (protein, UniProt P25705 44-553, looked up) ATP synthase F(1) complex …: QKTGTAEMSSILEERILGADTSVDLEETGRVLSIGDGIARVHGLRNVQAEEMVEFSSGLKGMSLNLEPDNVGVVVFGNDKLIKEGDIVKRTGAIVDVPVGEELLGRVVDALGNAIDGKGPIGSKTRRRVGLKAPGIIPRISVREPMQTGIKAVDSLVPIGRGQRELIIGDRQTGKTSIAIDTIINQKRFNDGSDEKKKLYCIYVAIGQKRSTVAQLVKRLTDADAMKYTIVVSATASDAAPLQYLAPYSGCSMGEYFRDNGKHALIIYDDLSKQAVAYRQMSLLLRRPPGREAYPGDVFYLHSRLLERAAKMNDAFGGGSLTALPVIETQAGDVSAYIPTNVISITDGQIFLETELFYKGIRPAINVGLSVSRVGSAAQTRAMKQVAGTMKLELAQYREVAAFAQFGSDLDAATQQLLSRGVRLTELLKQGQYSPMAIEEQVAVIYAGVRGYLDKLEPSKITKFENAFLSHVVSQHQALLGTIRADGKISEQSDAKLKEIVTNFLAGFEA | – | – | -0.3409 | 1.626
GTF3C3 (protein, UniProt Q9Y5Q9 2-886, looked up) General transcription factor …: SGFSPELIDYLEGKISFEEFERRREERKTREKKSLQEKGKLSAEENPDDSEVPSSSGINSTKSQDKDVNEGETSDGVRKSVHKVFASMLGENEDDEEEEEEEEEEEEEEETPEQPTAGDVFVLEMVLNRETKKMMKEKRPRSKLPRALRGLMGEANIRFARGEREEAILMCMEIIRQAPLAYEPFSTLAMIYEDQGDMEKSLQFELIAAHLNPSDTEEWVRLAEMSLEQDNIKQAIFCYTKALKYEPTNVRYLWERSSLYEQMGDHKMAMDGYRRILNLLSPSDGERFMQLARDMAKSYYEANDVTSAINIIDEAFSKHQGLVSMEDVNIAAELYISNKQYDKALEIITDFSGIVLEKKTSEEGTSEENKAPENVTCTIPDGVPIDITVKLMVCLVHLNILEPLNPLLTTLVEQNPEDMGDLYLDVAEAFLDVGEYNSALPLLSALVCSERYNLAVVWLRHAECLKALGYMERAAESYGKVVDLAPLHLDARISLSTLQQQLGQPEKALEALEPMYDPDTLAQDANAAQQELKLLLHRSTLLFSQGKMYGYVDTLLTMLAMLLKVAMNRAQVCLISSSKSGERHLYLIKVSRDKISDSNDQESANCDAKAIFAVLTSVLTKDDWWNLLLKAIYSLCDLSRFQEAELLVDSSLEYYSFYDDRQKRKELEYFGLSAAILDKNFRKAYNYIRIMVMENVNKPQLWNIFNQVTMHSQDVRHHRFCLRLMLKNPENHALCVLNGHNAFVSGSFKHALGQYVQAFRTHPDEPLYSFCIGLTFIHMASQKYVLRRHALIVQGFSFLNRYLSLRGPCQESFYNLGRGLHQLGLIHLAIHYYQKALELPPLVVEGIELDQLDLRRDIAYNLSLIYQSSGNTGMAQTLLYTYCSI | 0.6927 | -1.189 | – | –

Source: article PMC7367873, “Dissecting the sequence determinants for dephosphorylation by the catalytic subunits of phosphatases PP1 and PP2A” (Nature Communications, 2020)
